Test results as given in patent US20260265410A1 (UNIVERSITY OF FLORIDA RESEARCH FOUNDATION, published 2026).
Residue numbers refer to the chain shown, from its start.

Columns and labels:
[1] = target: T1, human Nectin-2 on the cell surface (U937 cells) (human, UniProt Q92692 32-538); assay: flow cytometry on whole U937 cells, screen of the 28 clones (Ctrl row = 0); Nectin-2 is named as the antigen on U937 cells only in the later examples
T1 construct: Endogenous Nectin-2 of U937 cells; also called PVRL2; CD112
T1 sequence: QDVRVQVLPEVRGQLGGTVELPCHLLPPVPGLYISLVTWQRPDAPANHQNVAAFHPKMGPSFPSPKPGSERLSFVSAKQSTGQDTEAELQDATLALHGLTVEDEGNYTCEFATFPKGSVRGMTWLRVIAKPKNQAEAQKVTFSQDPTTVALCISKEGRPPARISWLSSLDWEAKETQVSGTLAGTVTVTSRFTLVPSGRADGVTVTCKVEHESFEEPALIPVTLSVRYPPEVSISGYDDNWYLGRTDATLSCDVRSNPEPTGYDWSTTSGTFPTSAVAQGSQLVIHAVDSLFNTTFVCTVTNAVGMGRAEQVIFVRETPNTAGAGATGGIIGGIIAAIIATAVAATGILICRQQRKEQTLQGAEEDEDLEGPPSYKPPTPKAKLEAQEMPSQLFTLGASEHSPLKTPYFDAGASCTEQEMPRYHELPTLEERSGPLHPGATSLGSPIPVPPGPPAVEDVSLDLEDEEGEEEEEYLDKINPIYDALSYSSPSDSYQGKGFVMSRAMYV

[2] = target: T2, human Nectin-2 extracellular domain (amino acid residues 1-360 of human Nectin-2) fused to hFc (human, UniProt Q92692 32-360); assay: SPR, summary table; antigen column hNectin2 ECD
T2 construct: Bought; also called hNectin-2-ECD-hFc; NECTIN2-ECD-hFc; not shown: human Fc (hFc)
T2 sequence: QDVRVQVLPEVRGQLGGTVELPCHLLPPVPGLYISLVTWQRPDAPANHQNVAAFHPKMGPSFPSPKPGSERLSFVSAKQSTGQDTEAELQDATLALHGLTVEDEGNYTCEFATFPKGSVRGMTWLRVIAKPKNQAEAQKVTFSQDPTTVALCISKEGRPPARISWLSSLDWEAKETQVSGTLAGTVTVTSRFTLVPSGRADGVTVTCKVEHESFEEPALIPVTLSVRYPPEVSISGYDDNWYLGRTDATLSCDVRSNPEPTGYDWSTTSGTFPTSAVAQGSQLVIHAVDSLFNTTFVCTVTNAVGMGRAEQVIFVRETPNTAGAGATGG

[3] = target: T2, human Nectin-2 extracellular domain …; assay: SPR, Fab on human Nectin-2-ECD-hFc, five concentrations
[4] = target: T3, human PTPRG on the cell surface (U937 cells, HEL cells) (human, UniProt P23470 20-1445); assay: flow cytometry on whole HEL cells, screen of the 28 clones (Ctrl row = 0); PTPRG is named as the antigen on HEL cells only in the later examples
T3 construct: Endogenous PTPRG of human AML cell lines
T3 sequence (P23470 20-1445): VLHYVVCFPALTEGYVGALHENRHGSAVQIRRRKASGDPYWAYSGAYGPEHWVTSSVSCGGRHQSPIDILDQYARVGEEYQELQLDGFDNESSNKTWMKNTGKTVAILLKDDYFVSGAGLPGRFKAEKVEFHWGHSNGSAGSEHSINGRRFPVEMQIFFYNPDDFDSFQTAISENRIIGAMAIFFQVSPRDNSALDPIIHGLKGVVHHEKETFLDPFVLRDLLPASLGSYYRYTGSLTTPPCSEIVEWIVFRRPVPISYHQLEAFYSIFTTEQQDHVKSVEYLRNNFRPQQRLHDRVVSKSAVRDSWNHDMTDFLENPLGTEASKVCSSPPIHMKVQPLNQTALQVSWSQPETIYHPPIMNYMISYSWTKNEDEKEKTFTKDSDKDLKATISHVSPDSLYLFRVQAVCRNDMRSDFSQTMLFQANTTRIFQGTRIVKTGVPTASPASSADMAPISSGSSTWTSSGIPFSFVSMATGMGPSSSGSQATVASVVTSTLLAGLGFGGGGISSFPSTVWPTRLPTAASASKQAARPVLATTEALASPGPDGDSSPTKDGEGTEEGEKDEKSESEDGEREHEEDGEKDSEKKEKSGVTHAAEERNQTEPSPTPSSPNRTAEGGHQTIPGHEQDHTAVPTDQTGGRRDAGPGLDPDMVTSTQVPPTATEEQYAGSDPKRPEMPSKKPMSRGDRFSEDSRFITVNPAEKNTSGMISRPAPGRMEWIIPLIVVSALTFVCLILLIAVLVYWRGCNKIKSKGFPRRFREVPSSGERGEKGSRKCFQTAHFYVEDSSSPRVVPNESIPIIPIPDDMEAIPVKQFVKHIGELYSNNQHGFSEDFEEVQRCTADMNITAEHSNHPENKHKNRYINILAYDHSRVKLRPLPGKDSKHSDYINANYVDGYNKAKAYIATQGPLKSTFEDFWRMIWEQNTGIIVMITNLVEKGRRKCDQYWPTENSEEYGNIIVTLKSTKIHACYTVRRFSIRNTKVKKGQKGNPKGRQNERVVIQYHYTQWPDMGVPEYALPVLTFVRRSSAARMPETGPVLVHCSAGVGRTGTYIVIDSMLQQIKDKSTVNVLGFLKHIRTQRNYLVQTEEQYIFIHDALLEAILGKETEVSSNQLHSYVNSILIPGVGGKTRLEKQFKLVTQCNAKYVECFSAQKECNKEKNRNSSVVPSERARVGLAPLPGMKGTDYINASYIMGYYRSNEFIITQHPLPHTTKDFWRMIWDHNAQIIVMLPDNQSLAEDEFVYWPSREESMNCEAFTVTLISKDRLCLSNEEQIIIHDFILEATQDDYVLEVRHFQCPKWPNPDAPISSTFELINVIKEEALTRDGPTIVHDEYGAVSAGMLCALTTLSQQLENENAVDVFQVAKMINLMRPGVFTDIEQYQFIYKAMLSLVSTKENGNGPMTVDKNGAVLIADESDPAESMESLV

[5] = target: T3, human PTPRG on the cell surface (U937 …); assay: flow cytometry on whole U937 cells, screen of the 28 clones (Ctrl row = 0); PTPRG is named as the antigen on U937 cells only in the later examples
[6] = target: T4, C-terminal domain (CTD) of human PTPRG (amino acid residues 349~736 of human PTPRG) (human, UniProt P23470 349-736); assay: ELISA, one condition per Fab and antigen; y axis 0 to 1.8 without name or unit
T4 construct: also called hPTPRG-CTD; human PTPRG carboxyl domain
T4 sequence: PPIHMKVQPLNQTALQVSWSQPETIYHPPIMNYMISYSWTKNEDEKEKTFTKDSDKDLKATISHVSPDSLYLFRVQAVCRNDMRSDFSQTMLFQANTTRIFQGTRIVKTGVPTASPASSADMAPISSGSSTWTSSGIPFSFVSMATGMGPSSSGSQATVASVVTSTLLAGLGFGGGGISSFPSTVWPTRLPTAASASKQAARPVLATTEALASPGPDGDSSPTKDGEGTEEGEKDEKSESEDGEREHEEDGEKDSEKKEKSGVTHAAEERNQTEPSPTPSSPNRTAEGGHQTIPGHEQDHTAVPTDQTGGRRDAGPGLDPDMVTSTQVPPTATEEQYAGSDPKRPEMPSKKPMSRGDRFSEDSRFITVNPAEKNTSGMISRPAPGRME

[7] = target: T5, mouse PTPRG ECD (amino acid residues 20-733 of mouse PTPRG) fused to hFc (mouse, UniProt Q05909 20-733); assay: as above
T5 construct: Produced in-house; also called mPTPRG-ECD; Mouse PTPRG-ECD-hFc; not shown: human Fc (hFc)
T5 sequence: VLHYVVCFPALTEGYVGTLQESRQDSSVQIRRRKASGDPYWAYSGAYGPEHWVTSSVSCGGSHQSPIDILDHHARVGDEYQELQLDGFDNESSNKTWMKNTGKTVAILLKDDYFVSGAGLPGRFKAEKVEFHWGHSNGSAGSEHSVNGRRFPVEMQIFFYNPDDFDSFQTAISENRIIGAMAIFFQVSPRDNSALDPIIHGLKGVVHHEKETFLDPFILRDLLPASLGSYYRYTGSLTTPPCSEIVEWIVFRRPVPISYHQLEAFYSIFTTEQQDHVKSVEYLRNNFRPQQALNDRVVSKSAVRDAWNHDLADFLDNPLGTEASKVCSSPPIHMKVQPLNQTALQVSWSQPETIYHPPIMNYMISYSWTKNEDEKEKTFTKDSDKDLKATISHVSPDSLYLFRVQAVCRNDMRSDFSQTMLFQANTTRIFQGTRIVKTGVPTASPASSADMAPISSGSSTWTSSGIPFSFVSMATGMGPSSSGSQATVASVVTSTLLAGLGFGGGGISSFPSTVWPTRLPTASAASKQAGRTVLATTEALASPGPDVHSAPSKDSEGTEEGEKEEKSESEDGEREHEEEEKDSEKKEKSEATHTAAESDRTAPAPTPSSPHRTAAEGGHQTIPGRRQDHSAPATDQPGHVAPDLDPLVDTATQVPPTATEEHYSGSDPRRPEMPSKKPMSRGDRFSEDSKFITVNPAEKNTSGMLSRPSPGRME

[8] = target: T6, human CD105-ECD: amino acid residues Met 1-Gly 586 of human CD105 (Sino bio: Cat: 10149-H02H) (human, UniProt P17813 26-586); assay: ELISA, absorbance at 405 nm, one condition per Fab and antigen
T6 construct: Bought; also called hCD105-ECD-hFc; hCD105-hFc
T6 sequence: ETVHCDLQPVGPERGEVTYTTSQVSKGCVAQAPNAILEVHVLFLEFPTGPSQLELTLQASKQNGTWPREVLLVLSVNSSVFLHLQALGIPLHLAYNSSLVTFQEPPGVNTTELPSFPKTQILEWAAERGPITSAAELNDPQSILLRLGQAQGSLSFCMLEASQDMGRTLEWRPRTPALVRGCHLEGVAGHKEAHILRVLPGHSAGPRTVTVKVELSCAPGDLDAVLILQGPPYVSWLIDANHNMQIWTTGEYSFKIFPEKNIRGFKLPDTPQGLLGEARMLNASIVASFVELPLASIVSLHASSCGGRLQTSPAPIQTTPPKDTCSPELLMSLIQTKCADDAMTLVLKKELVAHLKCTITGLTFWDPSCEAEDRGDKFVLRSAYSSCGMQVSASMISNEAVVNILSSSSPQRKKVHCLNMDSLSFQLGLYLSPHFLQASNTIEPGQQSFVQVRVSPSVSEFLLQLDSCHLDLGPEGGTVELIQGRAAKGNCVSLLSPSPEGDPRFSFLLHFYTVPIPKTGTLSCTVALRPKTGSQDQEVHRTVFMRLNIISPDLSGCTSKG

[9] = target: T2, human Nectin-2 extracellular domain …; assay: as above
[10] = target: T7, human PTPRG extracellular domain (ECD) (residues 20~736 of human PTPRG) fused to hFc (human, UniProt P23470 20-736); assay: as above
T7 construct: Produced in-house by transient transfection of Expi293 cells; also called hPTPRG-ECD-hFc; hPTPRG-ECD; not shown: human Fc (hFc)
T7 sequence: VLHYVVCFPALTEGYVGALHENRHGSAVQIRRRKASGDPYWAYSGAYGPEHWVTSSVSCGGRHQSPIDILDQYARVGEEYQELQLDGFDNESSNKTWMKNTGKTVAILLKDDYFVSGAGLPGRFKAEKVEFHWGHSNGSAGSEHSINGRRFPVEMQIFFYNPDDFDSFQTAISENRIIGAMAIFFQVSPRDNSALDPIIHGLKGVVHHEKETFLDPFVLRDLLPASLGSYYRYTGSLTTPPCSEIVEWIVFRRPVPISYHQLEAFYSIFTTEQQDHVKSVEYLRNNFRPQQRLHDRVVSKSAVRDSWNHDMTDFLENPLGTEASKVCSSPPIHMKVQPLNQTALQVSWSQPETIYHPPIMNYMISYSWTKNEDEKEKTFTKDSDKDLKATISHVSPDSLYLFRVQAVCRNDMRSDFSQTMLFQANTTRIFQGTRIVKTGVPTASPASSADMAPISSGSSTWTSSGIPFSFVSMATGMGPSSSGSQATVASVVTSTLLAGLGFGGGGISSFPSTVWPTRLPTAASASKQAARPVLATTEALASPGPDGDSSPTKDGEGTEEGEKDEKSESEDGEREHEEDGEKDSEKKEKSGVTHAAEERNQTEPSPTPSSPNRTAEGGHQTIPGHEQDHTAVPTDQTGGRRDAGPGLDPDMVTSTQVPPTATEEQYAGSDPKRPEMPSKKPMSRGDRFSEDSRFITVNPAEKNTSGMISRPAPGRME

B1: Fab_350 (Fab, V domains shown)
VH: QEQLEESGGRLVTPGTPLTLTCTASGFSLSSYHMSWVRQAPGKGLEWIGLINTGDSAYYASWAKGRFTISRTSTTVDLRITSPTTEDTATYFCARTFGDGFNLWGPGTLVTISS
VL: SFVLTQPASVQVDLGQTVSLTCTADTLSRSYASWYQQKPGQAPVLLIYRDTSRPSGVPDRFSGSSSGNTATLTISGAQAGDEADYYCATEDSGDSSYQYVFGGGTQLTVTG
notes: Chimeric rabbit/human Fab; also called N350; clone 350
For B1, the “flow cytometry binding value (the table prints no name or unit)” value [1] was 89.3, the Kd [2] was 67.5 nM and the koff [2] was 0.0077 s⁻¹. The kon [2] was 114000 M⁻¹ s⁻¹ and the Kd [3] was 67.5 nM.

B2: Fab_1955 (Fab, V domains shown)
VH: AQSLEESGGRLVTPGTPLTLTCTASGFSLYSYDMSWVRQAPGKGLEWIGLIDGGGNTYYASWAKGRFTISKTSSTTVDLKMTSLTTEDTATYFCARELWPAYSSGAFNIWGPGTLVTISS
VL: B1 VL with D13N, S30R, S52R, A88V, E90T, S92G, G93S, D94G, Q98L, Y99V
notes: Chimeric rabbit/human Fab; also called P1955; clone 1955
In the case of B2, the “flow cytometry binding value (the table prints no name or unit)” value [4] is reported as 12.9, the “flow cytometry binding value (the table prints no name or unit)” value [5] is reported as 91.3 and the binding result [6] is reported as “no binding”. B2: binds [7]; no binding [8]; no binding [9].

B3: Fab_277 (Fab, V domains shown)
VH: AQSLEESGGRLVTPGTPLTLTCTASGFTLSSYHMSWVRQAPGKGLEWIGIISSGGSIYYASWAKGRFTISRTSTTVDLKMTSPTTEDTATYFCARYAAYSIGMDLWGPGTLVTVSS
VL: B1 VL with S1Q, D13N, T17M, S65T, E90D, S92N, G93S, D94G
notes: Chimeric rabbit/human Fab; also called N277
B3 was tested, and the “flow cytometry binding value (the table prints no name or unit)” value [1] was 87.8, the binding result [10] was “no binding” and the binding result [8] was “no binding”.

B4: Fab_2282 (Fab, V domains shown)
VH: QEQLKESGGRLVTPGTPLTLTCTASGFTISSYHMSWVRQAPGKGLEWIGVISASGGSTYYASWAKGRFTISKTSTTVDLKITSPTTEDTATYFCARESYGGYNLWGPGTLVTVSS
VL: B1 VL with D13N, T17M, S65T, E90D, S92N, G93S, D94G
notes: Chimeric rabbit/human Fab; also called N2282; mAb_2282
With B4 the “flow cytometry binding value (the table prints no name or unit)” value [1] was 92.2, the binding result [10] was “no binding” and the binding result [8] was “no binding”.

B5: Fab_2430 (Fab, V domains shown)
VH: AQSLEESGGRLVTPGTPLTLTCTVSGIDLSSYHMNWVRQAPGKGLEWIGIIGASAGTYYARWAKGRFTISKTSTTVDLKITSPTTEDTATYFCARSGGSMQLNLWGPGTLVTISS
VL: B1 VL with D13N, E90D, G93S, D94G
notes: Chimeric rabbit/human Fab; also called N2430
With B5 the “flow cytometry binding value (the table prints no name or unit)” value [1] was 92.6, the binding result [10] was “no binding” and the binding result [8] was “no binding”.
